For orientation: EC50 means the concentration at which the effect is half-maximal.

The source of these data is paper PMC10157173.

The target in test [1] is Tag-free recombinant human EGFR (Homo sapiens (Human).) (UniProt P00533). Put plainly: ELISA; sandwich ELISA for bispecificity: tag-free EGFR, HER2 or HER3 coated at 1000 ng/ml in PBS; dilutions of BiXAb™ in PBS, 37°C, 1 h; then 1000 ng/ml of the His-tagged second receptor, 37°C, 1 h; detected with peroxidase-conjugated anti-His tag antibody. For orientation: An ELISA detects its analyte on a solid surface through an enzyme-linked reagent.

Test [2] deals with Tag-free recombinant human HER3 ECD (Homo sapiens (Human).) (UniProt P21860). Described as above.

As to “BiXAb™ 3Patri-1Matu-Fc (bispecific antibody)”, the 50% effective concentration (EC50) in test [1] amounted to 170 nM; in test [2], 0.55 nM.
